T1: recombinant human Angiopoietin-2 (human, UniProt O15123 19-496)
T1 construct: also called Ang-2; rhAng-2
T1 sequence: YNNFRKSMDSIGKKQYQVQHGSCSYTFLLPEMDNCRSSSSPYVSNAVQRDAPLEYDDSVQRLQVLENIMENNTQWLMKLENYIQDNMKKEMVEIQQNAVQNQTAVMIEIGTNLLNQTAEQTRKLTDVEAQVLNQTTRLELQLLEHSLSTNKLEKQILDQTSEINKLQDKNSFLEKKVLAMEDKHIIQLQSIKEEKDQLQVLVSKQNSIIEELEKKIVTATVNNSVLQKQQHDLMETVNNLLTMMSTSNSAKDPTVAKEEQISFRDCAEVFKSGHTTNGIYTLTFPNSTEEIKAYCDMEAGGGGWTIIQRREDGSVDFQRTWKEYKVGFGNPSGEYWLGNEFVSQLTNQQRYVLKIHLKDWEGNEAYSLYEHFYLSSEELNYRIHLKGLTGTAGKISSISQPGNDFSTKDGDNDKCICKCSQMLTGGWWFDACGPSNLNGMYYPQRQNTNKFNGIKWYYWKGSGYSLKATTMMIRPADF

T2: mouse Angiopoietin-2 (mouse, UniProt O35608 19-496)
T2 construct: Secreted into the supernatant of HEK293F/293T cells transfected with the full-length open reading frame of 496 amino acids (GenBank BC027216); also called mAng-2; mouse Ang-2
T2 sequence: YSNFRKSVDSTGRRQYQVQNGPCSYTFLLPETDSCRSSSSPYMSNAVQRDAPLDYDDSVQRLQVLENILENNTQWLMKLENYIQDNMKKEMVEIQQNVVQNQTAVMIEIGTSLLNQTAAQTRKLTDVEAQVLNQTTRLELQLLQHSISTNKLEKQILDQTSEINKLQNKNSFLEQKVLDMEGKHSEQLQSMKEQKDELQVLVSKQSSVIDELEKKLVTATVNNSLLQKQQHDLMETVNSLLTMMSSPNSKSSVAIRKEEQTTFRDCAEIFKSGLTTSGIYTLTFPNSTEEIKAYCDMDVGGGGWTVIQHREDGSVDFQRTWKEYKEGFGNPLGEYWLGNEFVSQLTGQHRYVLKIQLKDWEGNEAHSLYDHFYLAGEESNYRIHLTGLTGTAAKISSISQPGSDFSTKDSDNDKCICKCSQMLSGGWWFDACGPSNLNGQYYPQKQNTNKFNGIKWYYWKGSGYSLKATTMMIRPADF

B1: mAb 3.3.2 (antibody, V domains shown)
VH: EVQLVESGGGLVQPGGSLRLSCAVSGFTFSSYWMSWVRQAPGKGLEWVANIKQDGSEKYYVDSVKGRFTISRDNAKNSLYLQMNSLRAEDTAVYYCARDQGIAVAGPFDYWGQGTLVTVSS
VL: EIVMTQSPATLSVSPGERATLSCRASQTVSSDLAWYQQKPGQAPRLLIYGASIRATGIPARFSGSGSGTEFTLTISSLQSEDFAVYSCQQYYNWWTFGQGTKVEIKR
notes: Variable regions only; hybridoma-derived fully human IgG kappa; also called 3.3.1; x3.3
B2: mAb 5.88.3 (antibody, V domains shown)
VH: EVQMVESGGGLVQPGGSLRLSCAASGFTLRSYWMSWVRQAPGKGLEWVANIKEDGSEKYHVDSVKGRFTISRDNAENSLFLQMSSLRAEDTAVYYCARDMEASAGLFDYWGQGTLVTVSS
VL: EIVMTQSPATLSVSPGERAILSCRASQSISSNLAWYQQKPGQAPRLLIYGASTRATGIPARFSGSGSGTEFTLTISSLQSEDFAVYYCQQYNYWWTFGQGTKVEIKR
notes: Variable regions only; hybridoma-derived fully human IgG kappa; also called x5.88*
B3: mAb 3.31.2 (antibody, V domains shown)
VH: EVQLVESGGGLVQPGGSLRLSCAASGFTFSSYWMSWVRQAPGKGLEWVANIKQDGSDKYYVDSVKGRFTISRDNAKNSLYLRMNSLRAEDTAVFYCARDMGSGWFDYWGQGTLVTVSS
VL: EVVMTQSPATLSVSPGERATLSCRASQSVGSNLAWYQQKPGQAPRLLIYGASTRATGIPARFSGSGSGTEFTLTISSLQSEDFAVYCCQQYNHWWTFGQGTKVEIKR
notes: Variable regions only; hybridoma-derived fully human IgG kappa; also called x3.31*
B4: mAb 5.101.1 (antibody, V domains shown)
VH: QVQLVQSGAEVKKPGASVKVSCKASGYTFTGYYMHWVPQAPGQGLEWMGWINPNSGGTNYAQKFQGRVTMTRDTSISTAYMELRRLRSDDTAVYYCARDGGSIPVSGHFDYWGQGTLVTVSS
VL: EIVMTQSPATLSVSPGERATLSCRASQSLISNLAWYQQKPGQAPRLLIFGASTRATGIPARFSGSGSGTEFTLTISSLQSEDFAVYYCHQYNNWWTFGQGTKVEIKR
notes: Variable regions only; hybridoma-derived fully human IgG kappa; also called x5.101
B5: mAb 5.28.1 (antibody, V domains shown)
VH: EVQLVESGGIVVQPGGSLRLSCAASGFTFDDYTMHWVRQTPGKGLEWVSLISWDGGSTYYADSVKGRFTISRDNSKNSLYLQMNSLRTEDTALYYCAKDIDIAVAGTGFDHWGQGTLVTVSS
VL: EIVMTQSPATLSVSPGERATLSCRASQSVTSNLAWYQQKPGQAPRLLIYGALIRATGIPARFSGSGSGTEFTLTISSLQSEDFAVYYCQQYNNWPFTFGPGTKVDIKR
notes: Variable regions only; hybridoma-derived fully human IgG kappa; also called x5.28
B6: mAb 3.19.3 (antibody, V domains shown)
VH: QVQLVESGGGVVQPGRSLRLSCAASGFTFTNYGMHWGRQAPGKGLEWVAVISHDGNNKYYVDSVKGRFTISRDNSKNTLYLQMNSLRAEDTAVYYCAREGIDFWSGLNWFDPWGQGTLVTVSS
VL: EIVLTQSPGTLSLSPGERATLSCRASQSITGSYLAWYQQKPGQAPRLLICGASSWATGIPDRFSGSGSGTDFTLTISRLEPEDFAVYYCQQYSSSPITFGQGTRLEIKR
notes: Variable regions only; hybridoma-derived fully human IgG kappa; also called x3.19
B7: mAb 5.103.1 (antibody, V domains shown)
VH: QVQLVQSGAEVKKPGASVKVSCKASGYTFTGYYLYWVPQAPGQGLEWMGWISPNSGGTNYAQKFQGRVTMTRDTSISTAYMELSRLRSDDTAVYYCARDQVIAVAGPFDYWAQGTLVTVSS
VL: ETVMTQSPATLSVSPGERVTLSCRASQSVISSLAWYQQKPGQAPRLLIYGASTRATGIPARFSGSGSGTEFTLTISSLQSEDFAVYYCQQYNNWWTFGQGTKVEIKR
notes: Variable regions only; hybridoma-derived fully human IgG kappa; also called x5.103*
B8: mAb 5.86.1 (antibody, V domains shown)
VH: QVQLVQSGAEVKKPGASVKVSCKASGYTFTGYHMYWVRQAPGQGLEWLGWINPNSGGTNYAQKFQGRVTMTRDTSISTAYMELSRLRSDDTAVYYCVRDQGIAAAGPFDYWCQGTLVTVSS
VL: DIRMTQSPSSLSASVGDRVTITCRASQRISTYLNWYQQKPGKAPKFLIYAASSLQSGVPSRFSGSGSGTDFTLTISSLQPEDFATYYCQQSYTTPFTFGPGTKVDIKR
notes: Variable regions only; hybridoma-derived fully human IgG kappa; also called x5.86

How the values were obtained:
[1] = target: T1, recombinant human Angiopoietin-2; assay: competition ELISA, Ang-2 on coated Tie2/Fc
Procedure: 96-well Nunc Immplates™ were coated with 100 μl of recombinant human Tie2/Fc fusion protein (R&D Systems, Inc., Cat. No. 313-TI-100) at 4 μg/ml by incubating overnight at 4° C. The plates were washed four times using Phosphate Buffer Saline (PBS) with a Skan™ Washer 300 station (SKATRON). The wells were blocked by 100 μl of ABX-blocking buffer (0.5% BSA, 0.1% Tween, 0.01% Thimerosal in PBS) for 1 hour.
The plates were incubated at room temperature for two hours before the unbound molecules were washed off. […] After washing twice, the bound Streptavidin was detected by HRP substrate (R&D Systems, Cat. No. DY998). The plates were incubated for 30 minutes before 450 stop solution (100 μl/well, BioFX, Cat #BSTP-0100-01) was added to terminate the reaction. The light absorbance at 450 nm was determined by a Spectramax Plus reader.
Each concentration of the mAb was tested in duplicate. The concentration-response relationship was found by curve fitting using Graphpad Prism™ graphic software (non-linear, Sigmnoid curve). The maximal inhibition (efficacy) and IC₅₀ (potency) were calculated by the software.

mouse Angiopoietin-2 [2] = target: T2, mouse Angiopoietin-2; assay: direct ELISA on plates coated with conditioned medium of HEK293F/mouse Ang-2 transfectants, detection with anti-human Fc-HRP
Procedure: The plates were incubated at 4° C. overnight, followed by washing four times using Phosphate Buffer Saline with a Skan Washer 300 station (SKATRON). The wells were blocked by 100 μl of ABX-block buffer (0.5% BSA, 0.1% Tween, 0.01% Thimerosal in PBS) for 1 hour. […] The mAbs and each of their dilutes were tested in duplicate. […] To set up the detecting chromagenic reaction, 100 μl of TMB substrate (TMB-microwell, BioFX, Cat. No. TMSK-1000-01) was added after washing the wells three times using PBS. The plates were incubated for 30 minutes before 650 stop solution (100 μl/well, BioFX, Cat. No. BSTP-0100-01) was added to terminate the reaction.

mouse Angiopoietin-2 [3] = target: T2, mouse Angiopoietin-2; assay: competition ELISA: mAb titrated with mouse Ang-2 supernatant on plates coated with human Tie2/Fc; blocked partner: human Tie2/Fc
Procedure: (§1) For this purpose, an ELISA plate was coated with 4 μg/ml of hTie2/Fc (R&D Systems, Inc.) at 100 μl/well, and the wells were blocked as routine at 4° C. overnight.
(§2) Each concentration of the mAb was tested in triplicate. […] OD650 was determined 30 min after the HRP substrate was added.

[4] = target: T1, recombinant human Angiopoietin-2; assay: competition ELISA: mAb titrated with recombinant human Ang-2 on plates coated with human Tie2/Fc; blocked partner: human Tie2/Fc
Procedure: as §1, §2

Row | Efficacy (ratio of bound Ang-2 with mAbs (30 µg/ml) versus without mAbs) [1] | other results | Binder
1 | 0.388 |  | B1
2 | 0.403 |  | B2
3 | 0.375 |  | B3
4 | 0.364 |  | B4
5 | 0.389 |  | B5
6 | 0.395 | EC50 (read off the curve) (mouse Angiopoietin-2 [2]): ~1 µg/mL; IC50 (read off the curve) (mouse Angiopoietin-2 [3]): ~2 µg/mL; IC50 (read off the curve) [4]: ~0.7 µg/mL | B6
7 | 0.232 |  | B7
8 | 0.384 |  | B8

From patent US20060246071A1 (AstraZeneca / MedImmune, published 2006)
